{"source": "patent US20050214822A1", "about": "(RUTGERS THE STATE UNIVERSITY OF NEW JERSEY, published 2005)", "target": "T1, tau (rat, UniProt P19332-5 2-432, limits assumed)", "T1 construct": "Cytoskeletal protein used as a specificity control in the cypin immunoprecipitates", "T1 sequence (P19332 other isoform, or with tags, fused parts or gaps limits assumed)": "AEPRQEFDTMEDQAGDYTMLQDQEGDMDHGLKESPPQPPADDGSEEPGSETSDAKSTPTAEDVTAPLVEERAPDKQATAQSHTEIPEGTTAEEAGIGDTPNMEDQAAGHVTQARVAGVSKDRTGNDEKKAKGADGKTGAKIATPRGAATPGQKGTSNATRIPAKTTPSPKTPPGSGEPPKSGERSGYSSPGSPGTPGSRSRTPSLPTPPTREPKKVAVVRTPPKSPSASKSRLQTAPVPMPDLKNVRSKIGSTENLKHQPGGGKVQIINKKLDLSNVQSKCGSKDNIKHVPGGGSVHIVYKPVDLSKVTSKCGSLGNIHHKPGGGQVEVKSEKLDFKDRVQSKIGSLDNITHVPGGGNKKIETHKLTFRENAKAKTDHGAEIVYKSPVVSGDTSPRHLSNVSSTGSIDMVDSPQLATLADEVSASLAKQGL", "test": "immunoprecipitation from rat brain extract with polyclonal anti-cypin antibody", "procedure": "Cypin contains a region of homology to CRMP that binds directly to tubulin heterodimers (Akum et al., Nature Neurosci. 7:145 (2004)). To establish that cypin binds to tubulin, affinity chromatography was performed using a GST fusion of rat cypin immobilized on glutathione beads incubated with rat brain extract. The eluate was then assayed for the presence of tubulin. […] To assess whether this interaction occurs in vivo, rat brain extract was subjected to immunoprecipitation with preimmune serum or polyclonal antibody raised against cypin. Tubulin was found in the cypin immunoprecipitates (Id.). Very little tubulin was present when preimmune serum is used, representing nonspecific binding (Id.). Furthermore, no tau was detected in the cypin immunoprecipitates, supporting the idea that cypin binds specifically to tubulin and not all cytoskeletal proteins (Id.). In addition, cypin was found in tubulin immunoprecipitates."}
{"binder": "cypin in rat brain extract (enzyme, Endogenous cypin immunoprecipitated from rat brain extract with a polyclonal antibody raised against cypin; also called endogenous cypin) MCAARTPQLALIFRGTFVHSTWTCPMEVLRDHLLGVSDSGKIVFLEESSQQEKLAKEWCFKPCEIRELSHHEFFMPGLVDTHIHAPQYAFAGSNVDLPLLDWLNKYTFPTEKRFQSTDVAEEVYTRVVRRTLKNGTTTACYFGTIHTDSSLILAEITDKFGQRAFVGKVCMDLNNTVPEYKETTEESVKETERFVSEMLQKNYSRVKPIVTPRFSLSCTETLMSELGNIAKTHDLYIQSHISENREEIEAVKSLYPGYKNYTDVYDKNNLLTNKTVMAHGCYLSEEELNVFSERGASIAHCPNSNLSLSSGLLNVLDVLKHKVKIGLGTDVAGGYSYSMLDAIRRAVMVSNVLLINKVNEKSLTLKEVFRLATLGGSQALGLDREIGNFEVGKDFDALLINPRASDSPIDLFCGDFVGDISEAVIQKFLYLGDDRNIEEVYVGGKQVVPFSSSV", "values": [{"measurement": "binding result", "result": "no binding"}]}
